Experimental findings from patent US20040005636A1, “Method for obtaining the binding affinities of a peptide library to a protein” (priority 2002, published 2004) are described below.

Test [1] concerns the target T1, hERα-LBD (Homo sapiens, UniProt P03372).
T1 construct: The receptor ERα-LBD or TRβ-LBD, expressed using reported protocols; made in house
T1 sequence (P03372 311-547 limits assumed): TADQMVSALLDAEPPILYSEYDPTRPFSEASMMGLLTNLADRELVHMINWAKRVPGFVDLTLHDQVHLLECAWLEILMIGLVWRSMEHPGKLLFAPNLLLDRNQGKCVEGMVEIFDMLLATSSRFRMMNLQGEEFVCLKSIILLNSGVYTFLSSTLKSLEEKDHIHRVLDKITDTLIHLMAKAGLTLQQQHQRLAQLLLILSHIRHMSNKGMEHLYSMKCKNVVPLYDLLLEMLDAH
In words: Fluorescence polarization assay of coregulator peptide binding to ERα-LBD. The conditions noted are these: ERα-LBD in the presence of estradiol; read-out: Dissociation constant for ERα, Estradiol. The procedure:
The peptide library synthesized in Example 1 was assayed with ERα or TRβ receptor. Library members were kept at a constant concentration of 10 nM. A ligand was optionally added to the nuclear hormone receptor.
The receptor ERα-LBD or TRβ-LBD, expressed using reported protocols (for TR see, e.g., Darimont et al., Genes Dev., 12(21):3343-56, (1998); and for ER, see, e.g., Shiau et al., Cell, (1998), 95(7):927-937), was used. The concentration of protein varied between 0.001-20 μM in the following way. In 96 well plates, hTRβ-LBD or hERα-LBD was serially diluted from 40 μM to 0.002 μM in binding buffer (50 mM Sodium Phosphate, 150 mM NaCl, pH 7.2, 1 mM DTT, 1 mM EDTA, 0.01% NP40, 10% glycerol), containing 200 μM ligand (T3, for TRβ, or estradiol, diethylstilbestrol, genistein or tamoxifen for ERα).
(§1) Subsequently 10 μL of diluted protein was added to 10 μL of fluorescent coregulator peptide (20 nM) in 384-well plates yielding final protein concentrations of […] and 10 nM fluorescent peptide concentration. The samples were allowed to equilibriate for 30 minutes. Binding was then measured using fluorescence polarization (excitation λ at 485 nm, emission λ at 530 nm) on an Analyst AD (available from Molecular Devices).
All experiments were carried out in quadruplicate, with each iteration containing the positive and negative controls, and 10-12 dose points. The data were then fit using Klotz plots to determine IC50 values using nonlinear regression analysis that fits the data to a modification of the model of Heyduk and Lee. (Heyduk et al., Proc. Natl. Acad. Sci., (1990), 1774; Heyduk et al., Nature, (1993), 364, 6437; Heyduk et al., Methods Enzymol., 274, 492. Further analysis was conducted using Hill and Scatchard plots to confirm number and homogeneity of binding sites as discussed hereinbelow.
FIG. 6 illustrates direct binding of SRC2-2 to ERα-LBD in the presence of the ligands estradiol, diethylstilbestrol and genistein. […] Measured dissociation constants for binding of members of the SRC peptide library to ERα, in the presence of 3 different ligands, are illustrated in Table 4 wherein the binding units are μM. Table 5 illustrates a comparison of binding constants (μM) for SRC peptides with the TRβ receptor in the presence of thyroid hormone T3, and the ERα receptor in the presence of estradiol.

Test [2] deals with T2, hERα-LBD (ligand binding domain of estrogen receptor α) (human, UniProt P03372 297-554).
T2 construct: Assayed with estradiol, diethylstilbestrol, genistein or tamoxifen present; the ligand is named under assay in each row
T2 sequence (looked up): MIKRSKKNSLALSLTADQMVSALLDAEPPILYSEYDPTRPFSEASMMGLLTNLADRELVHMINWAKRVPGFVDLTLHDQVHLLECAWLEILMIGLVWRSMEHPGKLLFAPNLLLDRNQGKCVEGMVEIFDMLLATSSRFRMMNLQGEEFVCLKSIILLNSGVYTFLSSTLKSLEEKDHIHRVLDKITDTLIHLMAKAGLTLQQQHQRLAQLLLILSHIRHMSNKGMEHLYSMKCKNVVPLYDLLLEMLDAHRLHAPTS
In words: fluorescence polarization, labelled peptide 10 nM, hERα-LBD titrated, diethylstilbestrol present. The protocol: (§2) The concentration of protein varied between 0.001-20 μM in the following way. In 96 well plates, hTRβ-LBD or hERα-LBD was serially diluted from 40 μM to 0.002 μM in binding buffer (50 mM Sodium Phosphate, 150 mM NaCl, pH 7.2, 1 mM DTT, 1 mM EDTA, 0.01% NP40, 10% glycerol), containing 200 μM ligand (T₃, for TRβ, or estradiol, diethylstilbestrol, genistein or tamoxifen for ERα).
as §1
(§3) All experiments were carried out in quadruplicate, with each iteration containing the positive and negative controls, and 10-12 dose points. The data were then fit using Klotz plots to determine IC₅₀ values using nonlinear regression analysis that fits the data to a modification of the model of Heyduk and Lee. (Heyduk et al., Proc. Natl. Acad. Sci., (1990), 1774; Heyduk et al., Nature, (1993), 364, 6437; Heyduk et al., Methods Enzymol., 274, 492. Further analysis was conducted using Hill and Scatchard plots to confirm number and homogeneity of binding sites as discussed hereinbelow.

For test [3], the target named is T3, hTRβ-LBD (ligand binding domain of thyroid hormone receptor β) (human, UniProt P10828 202-461).
T3 construct: Assayed with the small-molecule ligand T3 present
T3 sequence (looked up): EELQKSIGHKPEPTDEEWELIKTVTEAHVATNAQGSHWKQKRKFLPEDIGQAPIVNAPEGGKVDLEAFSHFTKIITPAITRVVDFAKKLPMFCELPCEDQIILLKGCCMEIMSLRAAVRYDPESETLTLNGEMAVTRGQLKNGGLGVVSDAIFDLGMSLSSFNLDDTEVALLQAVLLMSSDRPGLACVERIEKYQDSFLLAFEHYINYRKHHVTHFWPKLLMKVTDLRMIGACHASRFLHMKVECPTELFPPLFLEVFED
Kind of test: fluorescence polarization, hTRβ-LBD titrated, T3 present; Table 3 prints >AL (assay limits) for this pair. The procedure:
as §2, §1, §3

Test [4] concerns the target T2, hERα-LBD (ligand binding domain of …). Kind of test: fluorescence polarization, labelled peptide 10 nM, hERα-LBD titrated, genistein present. The procedure:
as §2, §1, §3

Ends that are not written are not given here. Peptide text beside a SMILES is read from it. * marks the point of attachment. Fluorescein(5-NHCOCH2) = O=C(C*)Nc1ccc2c(c1)C(=O)OC21c2ccc(O)cc2Oc2cc(O)ccc21

As to `CSCC[C@H](NC(=O)[C@H](CCC(N)=O)NC(=O)[C@H](CC(=O)O)NC(=O)[C@H](CO)NC(=O)[C@H](CCCCN)NC(=O)[C@@H](NC(=O)[C@@H](NC(=O)[C@H](CC(C)C)NC(=O)[C@H](CC(C)C)NC(=O)[C@H](CCC(N)=O)NC(=O)[C@H](CC(C)C)NC(=O)[C@H](CC(C)C)NC(=O)[C@H](CCCCN)NC(=O)[C@@H](NC(=O)[C@H](CCC(N)=O)NC(=O)CNC(=O)[C@H](CCCCN)NC(=O)[C@H](CO)NC(=O)[C@H](CC(=O)O)NC(=O)[C@@H](N)CSCC(=O)Nc1ccc2c(c1)C(=O)OC21c2ccc(O)cc2Oc2cc(O)ccc21)[C@@H](C)O)[C@@H](C)O)[C@@H](C)O)C(=O)O` [SRC2-1] (H-C(Fluorescein(5-NHCOCH2))DSKGQTKLLQLLTTKSDQM-OH), the Kd in test [1] came out at 927 nM.
For the molecule `CC(C)C[C@H](NC(=O)[C@H](CCC(N)=O)NC(=O)[C@@H](NC(=O)[C@H](CC(C)C)NC(=O)[C@H](CCCCN)NC(=O)[C@H](Cc1c[nH]cn1)NC(=O)[C@H](CO)NC(=O)[C@@H](NC(=O)[C@H](CCC(N)=O)NC(=O)[C@H](CO)NC(=O)[C@H](Cc1ccc(O)cc1)NC(=O)[C@@H](N)CSCC(=O)Nc1ccc2c(c1)C(=O)OC21c2ccc(O)cc2Oc2cc(O)ccc21)[C@@H](C)O)C(C)C)C(=O)N[C@@H](CC(C)C)C(=O)N[C@H](C(=O)N[C@H](C(=O)N[C@H](C(=O)N[C@@H](C)C(=O)N[C@@H](CCC(=O)O)C(=O)N[C@@H](CCC(N)=O)C(=O)N[C@@H](CCC(N)=O)C(=O)O)[C@@H](C)O)[C@@H](C)O)[C@@H](C)O` [SRC1-1] (H-C(Fluorescein(5-NHCOCH2))YSQTSHKLVQLLTTTAEQQ-OH), the Kd in test [1] worked out at 1210 nM.
Consider `CC(C)C[C@H](NC(=O)[C@H](CC(=O)O)NC(=O)[C@H](CCCCN)NC(=O)[C@H](CCC(=O)O)NC(=O)[C@H](CC(=O)O)NC(=O)[C@H](CCCCN)NC(=O)[C@H](CC(=O)O)NC(=O)[C@H](CC(C)C)NC(=O)[C@H](CC(C)C)NC(=O)[C@H](Cc1ccc(O)cc1)NC(=O)[C@H](CCCNC(=N)N)NC(=O)[C@H](CC(C)C)NC(=O)[C@H](CC(C)C)NC(=O)[C@H](CCC(N)=O)NC(=O)[C@H](Cc1c[nH]cn1)NC(=O)[C@H](CC(=O)O)NC(=O)[C@H](CCCCN)NC(=O)[C@H](CO)NC(=O)[C@H](CCC(=O)O)NC(=O)[C@@H](N)CSCC(=O)Nc1ccc2c(c1)C(=O)OC21c2ccc(O)cc2Oc2cc(O)ccc21)C(=O)O` [SRC1-3], for which, in test [1], the Kd is 2540 nM.
The same measure, in the same setting: next, `CC[C@H](C)[C@H](NC(=O)[C@H](CCCNC(=N)N)NC(=O)[C@H](Cc1c[nH]cn1)NC(=O)[C@H](CCCCN)NC(=O)[C@H](CCC(=O)O)NC(=O)[C@H](CCC(N)=O)NC(=O)[C@H](CC(C)C)NC(=O)[C@@H](N)CSCC(=O)Nc1ccc2c(c1)C(=O)OC21c2ccc(O)cc2Oc2cc(O)ccc21)C(=O)N[C@@H](CC(C)C)C(=O)N[C@@H](Cc1c[nH]cn1)C(=O)N[C@@H](CCCCN)C(=O)N[C@@H](CC(C)C)C(=O)N[C@@H](CC(C)C)C(=O)N[C@@H](CCC(N)=O)C(=O)N[C@@H](CC(N)=O)C(=O)NCC(=O)N[C@@H](CC(N)=O)C(=O)N[C@@H](CO)C(=O)N1CCC[C@H]1C(=O)N[C@@H](C)C(=O)O` [SRC3-2] (H-C(Fluorescein(5-NHCOCH2))LQEKHRILHKLLQNGNSPA-OH): 363 nM.
For the molecule C(5‑iodoacetamidofluorescein)ESKDHQLLRYLLDKDEKDL [SRC1-3 coregulator peptide], the Kd in test [2] came out at 1460 nM; in test [3] it was 100000 nM; in test [4], 2550 nM.
On to C(5‑iodoacetamidofluorescein)YSQTSHKLVQLLTTTAEQQ [SRC1-1 coregulator peptide], for which the Kd in test [2] was found to be 853 nM; in test [3], 100000 nM; in test [4], 5000 nM.
As to C(5‑iodoacetamidofluorescein)LQEKHRILHKLLQNGNSPA [SRC3-2 coregulator peptide], the Kd is 415 nM in test [2], 100000 nM in test [3] and 1030 nM in test [4].
CLKEKHKILHRLLQDSSSPV (5-iodoacetamidofluorescein coupled to the amino terminal cysteine, also called SRC2-2 peptide) [SRC2-2 coregulator peptide]: the Kd in test [2] was found to be 277 nM; in test [4], 569 nM.
C(5‑iodoacetamidofluorescein)LTARHKILHRLLQEGSPSD [SRC1-2 coregulator peptide]: the Kd came to 302 nM in test [2] and 298 nM in test [4].
As to C(5‑iodoacetamidofluorescein)DSKGQTKLLQLLTTKSDQM [SRC2-1 coregulator peptide], the Kd in test [2] came to 896 nM; in test [3], 100000 nM; in test [4] it was 2600 nM.
